How the values were obtained:
[1] = target: drug antibody (capture and tracer of the bridging immunoassay of FIGS. 2, 7 and 8; not named); assay: bridging immunoassay, drug antibody as capture and tracer, binder at 80 ng/ml
[2] = target: targeted IgG-IL2 (interleukin-2 fused to the C-terminus of a heavy chain of an antibody specifically binding to a therapeutic target); assay: bridging ELISA, drug-Bi and drug-Dig, human pooled serum, binder 0.06 ng/mL assay / 1.2 ng/mL matrix
[3] = target: TCB (T-cell bispecific format) drug antibody; assay: as above
[4] = target: non-targeted IgG-IL2 (interleukin-2 fused to the C-terminus of a heavy chain of a germline antibody, which is not binding to a target); assay: as above
[5] = target: non-targeted IgG-IL2 (interleukin-2 fused to the C-terminus of a heavy chain of a germline antibody, which is not binding to a target); assay: bridging ELISA, IgG-IL2-Bi and -Dig, binder 0.1 ng/mL assay / 2.4 ng/mL matrix
[6] = target: targeted IgG-IL2 (interleukin-2 fused to the C-terminus of a heavy chain of an antibody specifically binding to a therapeutic target); assay: bridging ELISA, drug-Bi and drug-Dig, human pooled serum, binder 16 ng/mL assay / 312.5 ng/mL matrix
[7] = target: TCB (T-cell bispecific format) drug antibody; assay: as above
[8] = target: non-targeted IgG-IL2 (interleukin-2 fused to the C-terminus of a heavy chain of a germline antibody, which is not binding to a target); assay: as above
[9] = target: targeted IgG-IL2 (interleukin-2 fused to the C-terminus of a heavy chain of an antibody specifically binding to a therapeutic target); assay: bridging ELISA, drug-Bi and drug-Dig, human pooled serum, binder 2.0 ng/mL assay / 39 ng/mL matrix
[10] = target: TCB (T-cell bispecific format) drug antibody; assay: as above
[11] = target: non-targeted IgG-IL2 (interleukin-2 fused to the C-terminus of a heavy chain of a germline antibody, which is not binding to a target); assay: as above
[12] = target: targeted IgG-IL2 (interleukin-2 fused to the C-terminus of a heavy chain of an antibody specifically binding to a therapeutic target); assay: bridging ELISA, drug-Bi and drug-Dig, human pooled serum, binder 1.0 ng/mL assay / 20 ng/mL matrix
[13] = target: TCB (T-cell bispecific format) drug antibody; assay: as above
[14] = target: non-targeted IgG-IL2 (interleukin-2 fused to the C-terminus of a heavy chain of a germline antibody, which is not binding to a target); assay: as above

signal-to-noise ratio (S/N) [1]: 4.5
signal [AU] [2]: 0.042 AU
signal [AU] [3]: 0.049 AU
signal [AU] [4]: 0.042 AU
signal [AU] [5]: 0.058 AU
signal [AU] [6]: 0.894 AU
signal [AU] [7]: 1.19 AU
signal [AU] [8]: 0.23 AU
signal [AU] [9]: 0.148 AU
signal [AU] [10]: 0.195 AU
signal [AU] [11]: 0.0615 AU
signal [AU] [12]: 0.0975 AU
signal [AU] [13]: 0.12 AU
signal [AU] [14]: 0.0485 AU
B1: multivalent anti-PG antibody derived from clone 1.7.24 (mixed Pool 2, 3, 4) (antibody, V domains shown)
VH: EVKLLESGGGLVQPGGSLKLSCAASGFDFSRYWMNWVRQAPGKGLEWIGEITPDSSTINYTPSLKDKFIISRDNAKNTLYLQMIKVRSEDTALYYCVRPYDYGAWFASWGQGTLVTVSA
VL: QAVVTQESALTTSPGETVTLTCRSSTGAVTTSNYANWVQEKPDHLFTGLIGGTNKRAPGVPARFSGSLIGDKAALTITGAQTEDEAIYFCALWYSNHWVFGGGTKLTVL
modifications: lysine amines derivatised with SATP or MHS and cross-linked (sites not given)

Source: patent publication US20240410900A1
